Among the data in patent US20240102992A1 are cell-mediated cytotoxicity activity (lysis rate); targets A20/cCD20/luc and EL-4/cCD20/luc, effectors NK-92/cCD16γ, E/T 10:1 values, retold here.

This assay deals with canine CD20 with C-terminal FLAG tag, expressed on A20/cCD20/luc or EL-4/cCD20/luc cells (dog) (UniProt Q3C2E2). The assay is described as follows: cell-based or functional assay.
Chain of UniProt Q3C2E2 (Q3C2E2 other isoform, or with tags, fused parts or gaps): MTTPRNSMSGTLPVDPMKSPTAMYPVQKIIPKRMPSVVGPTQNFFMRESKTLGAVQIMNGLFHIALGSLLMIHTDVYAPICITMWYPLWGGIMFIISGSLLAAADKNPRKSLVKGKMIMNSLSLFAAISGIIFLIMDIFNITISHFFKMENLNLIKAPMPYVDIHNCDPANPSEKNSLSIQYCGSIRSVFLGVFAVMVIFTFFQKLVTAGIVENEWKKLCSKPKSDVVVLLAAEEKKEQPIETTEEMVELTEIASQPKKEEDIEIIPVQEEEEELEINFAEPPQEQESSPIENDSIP

In the case of “Dog IgG antibody (Jackson ImmunoResearch Laboratories, Inc.)”, the cell-mediated cytotoxicity activity (lysis rate); targets A20/cCD20/luc and EL-4/cCD20/luc, effectors NK-92/cCD16γ, E/T 10:1 is less than 25%.
